Data: patent US20210253725A1 (BIONTECH, published 2021)

T1: CD134 expressed on the cell surface of HT1080_OX40 cells (human, UniProt P43489 29-277)
T1 sequence (looked up): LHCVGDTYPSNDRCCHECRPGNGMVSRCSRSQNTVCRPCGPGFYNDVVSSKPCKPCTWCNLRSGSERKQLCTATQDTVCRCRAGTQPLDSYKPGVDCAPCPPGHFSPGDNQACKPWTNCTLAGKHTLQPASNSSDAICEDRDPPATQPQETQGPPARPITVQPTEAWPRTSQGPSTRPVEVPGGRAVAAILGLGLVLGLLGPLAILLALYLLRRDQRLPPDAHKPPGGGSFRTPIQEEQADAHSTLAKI

T2: CD134 protein (His-tagged, Sino Biological Inc. 10481-H08H) (human, UniProt P43489 29-216)
T2 construct: bought protein coated on ELISA plates; also called OX40; TNFRSF4; not shown: His tag
T2 sequence (looked up): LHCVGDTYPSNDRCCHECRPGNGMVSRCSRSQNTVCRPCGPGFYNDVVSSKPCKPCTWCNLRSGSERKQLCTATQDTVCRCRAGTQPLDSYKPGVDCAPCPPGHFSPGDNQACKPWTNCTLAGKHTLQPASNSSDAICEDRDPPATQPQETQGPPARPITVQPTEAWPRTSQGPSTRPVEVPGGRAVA


Columns and labels:
[1] = target: T1, CD134 expressed on the cell surface of …; experiment: cell-based or functional assay
[2] = target: T1, CD134 expressed on the cell surface of …; experiment: HT1080_OX40 cells, imaging
[3] = target: T2, CD134 protein (His-tagged, Sino …); experiment: ELISA, coated His-tagged CD134
Also: test concentration or dose not given here.

| Functional assay Cross-linked by F(ab′)2 fragment IL-8 [1] | Functional assay IL-8 [1] | Cellular binding assay [RFU] [2] | ELISA [abs. corr.] [3] | Binder |
| --- | --- | --- | --- | --- |
| 1.87 abs. corr. | 0.054 abs. corr. | 493 RFU | 2.3 abs. corr. | P018.S.12.A.E06 (antibody, V domains shown, V regions on human Ig constant parts; also called AB134_77) VH: QSVEESGGRLVTPGTPLTLTCTVSGFSLSNYHMCWVRRAPGKGLEWIGSITTADETTHYANWAKGRFTISETSTTVDLRITSPTTEDTAIYFCGRTIRYDDYAVDLWGPGTLVTVSS VL: DLVMTQTPASMSEPVGGTVTIKCQASESVGGYLAWYQQKAGQRPKLLIYAAGNLASGVPSRFKGSGSGTEYTLTISDLESADAATYYCQCTYFDSSYVGFGGGTEVVVR |
| 1.94 abs. corr. | 0.38 abs. corr. | 522 RFU | 1.85 abs. corr. | P018.S.11.A.F03 (antibody, V domains shown, V regions on human Ig constant parts; also called AB134_39) VH: QEQLVESGGGLVQPEGSLTLTCKASGFDFNNNAMCWVRQAPGKGLEWIACIYDGSSGSTYYASWAKGRFTISKTSSSTVTLQMTSLTAADTATYFCARAYAAYTVYDYAFNLWGPGTLVTVSS VL: DVVMTQTPASVSEPVGGTVTIKCQASQSIGSDLAWYQQKPGQPPKLLIYYTTNLETGVSSRFKGSGSGTQFTLTISDLESADAATYYCQYADRSSYSFGGGTEVVVK |
| 1.79 abs. corr. | 0.481 abs. corr. | 318 RFU | 0.276 abs. corr. | P018.S.11.A.E03 (antibody, V domains shown, V regions on human Ig constant parts; also called AB134_34) VH: QSVEESGGRLVTPGTPLTLTCTVSGFSLSSYAVSWVRQAPWKGLEWIGIISSGGNTYYASWATGRFTISKTSTTVDLKITSPTTEDTATYFCARGIHSYDDYLGYKLWGPGTLVTVSS VL: AIEMTQSPPSLSASVGETVRIRCLASEFLFNAVSWYQQKPEKPPTLLISGASNLESGVPPRFSGSGSGTDYTLTIGGVQAEDVAAYYCLGGYKRADLTFGPGTKVEIK |
| 1.89 abs. corr. | -0.121 abs. corr. | 295 RFU | 1.98 abs. corr. | P018.S.12.A.H04 (antibody, V domains shown, V regions on human Ig constant parts; also called AB134_90) VH: QSVEESGGRLVTPGTPLTLTCTASGFSLSDYYMSWVRQAPGKGLEWIGFMNSGGNAYYASWASGRFTISKTSTTVDLKITSPTTEDTATYFCVRDLSRFSLWGRGTLVIVSS VL: AAVLTQTPSPVSAAVGGTVTINCQASPSVYSDYLSWFQQKPGQAPKLLIYWASTLTSGVPSRFSGSGSGTQFTLTISDVQSDDAATYYCAGGYSGNSDVWAFGGGTEVVVK |
| 1.73 abs. corr. | 0.09 abs. corr. | 140 RFU | 2.85 abs. corr. | P018.S.02.A.F03 (antibody, V domains shown, V regions on human Ig constant parts; also called AB134_2) VH: QSVEESGGRLVTPGTPLTLTCTASGFSLSRYYMSWVRQAPGKGLEWIGFINTAGSAYYASWAKGRFTISRTSTTVDLKMTSLTTEDTATYFCARDLSRFSLWGRGTLVIVSS VL: AAVLTQTPSPVSAAVGGTVTINCQASPSVYSDYLSWFQKKPGQPPKLLIYWASTLASGVPSRFSGSGSGTQFTLTISDLESDDVATYYCAGGYSGNSDNWAFGGGTDVVVK |
| 1.75 abs. corr. | 0.014 abs. corr. | 482 RFU | 2.13 abs. corr. | P018.S.11.A.G04 (antibody, V domains shown, V regions on human Ig constant parts; also called AB134_44) VH: QSVEESGGRLVTPGTPLTLTCTASGFDLSSYYMSWVRQAPGKGLEWIGIIYTDSSASYASWAKGRFTISRTSTTVDLKMTSPTTEDTATYFCARGLVVSTDNYNLWGPGTLVTVSS VL: AAVLTQTPSPVSVAVGGTVTINCQASQSIYNNNYLAWFQQKPGQPPKLLIYYTSTLASGVPSRFKGSGSGTQFTLTINGVQSDDAATYYCLGDVGGGMRVFGGGTEVVVK |
| 1.94 abs. corr. | 0.709 abs. corr. | 477 RFU | 2.66 abs. corr. | P018.S.08.A.B03 (antibody, V domains shown, V regions on human Ig constant parts; also called AB134_19) VH: QSVEESGGRLVTPGTPLTLTCTVSGFSLSRYAITWVRQAPGKGLEWIGIISSSGTTYYASWAKGRFTISKTSTTVDLKITSPTTEDTAIYFCARAIAGDAGYVYAIDWLDLWGQGTLVTVSS VL: DPVLTQTPSSASEPVGGTVTIKCQASEYISNYLSWYQQKPGQPPKLLIFGASTLESGVPSRFSGSGSGTEFTLTISGVQSADAATYYCQGGYFSSSTTYVAFGGGTEVVVR |
| 1.77 abs. corr. | 0.333 abs. corr. | 472 RFU | 2.64 abs. corr. | P018.S.12.A.D02 (antibody, V domains shown, V regions on human Ig constant parts; also called AB134_67) VH: QSVEESGGRLVTPGTPLTLTCTVSGFSLRHYAMSWVRQAPGKGLEWIGVITTTANTYYASWAKGRFTVSKASSTTVDLKIMSPTIEDTATYFCARAMGLYDSYVDVDDTHDAFDPWGPGTLVTVSS VL: AQVLTQTASPVSAAVGGTVTINCQSSQSVYNSHVLSWYQQKPGQPPKLLIYDASNLASGVPSRFSASGSGTQFTLTISGVQSDDAATYYCLGGYDDDADNIFAFGGGTEVVVA |
| 1.8 abs. corr. | 0.783 abs. corr. | 515 RFU | 2.8 abs. corr. | P018.S.11.A.H02 (antibody, V domains shown, V regions on human Ig constant parts; also called AB134_46) VH: QSVEESGGRLVTPGTPLTLTCTVSGFSLSNYAMSWVRQAPGKGLEWIGIISPSGNTYYANWAKGRFTISKTSTTVDLKITSPTTEDTATYFCAREGALYDDYGDYVDAFDPWGPGTLVTVSS VL: AAVLTQTPSPVSAAVGGTVSISCQSSESVYNNNWLSWYQQKPGQPPKLLIYRASTLASGVPSRFKGSGSGTQFTLTISDVQSDDAATYYCAGGYSSSSDINAFGGGTEVVVK |
| 1.81 abs. corr. | 0.212 abs. corr. | 530 RFU | 2.33 abs. corr. | P018.S.12.A.G02 (antibody, V domains shown, V regions on human Ig constant parts; also called AB134_84) VH: QSLEESGGRLVTPGTPLTLTCTASGFSLNMFYMIWVRQAPGKGLEWIGMIDSMGSAWYASWAKGRFTISKTSTAVALKITSPTTEDTATYFCARAINGDGAGDLWGQGTLVTVSS VL: DVVMTQTPASVSAAVGGTVTINCRASEKIDSFLAWYQQKPGQPPKLLIYGASELAPGVPSRFSGSGSGTDYTLTISALESADAATYYCQSTADGSDYVGTFGGGTEVVVK |
| 1.86 abs. corr. | 1.33 abs. corr. | 526 RFU | 1.56 abs. corr. | P018.S.12.A.G01 (antibody, V domains shown, V regions on human Ig constant parts; also called AB134_83) VH: QSVEESGGRLVTPGTPLTLTCTVSGFSLSSSTMGWFRQAPGKGLEWIGVIYTDGDTYYARWAKGRFTISKTSTTINLSITSPTSEDTATYFCARRANGYDDFDPWGPGTLVTVSS VL: AYDMTQTPASVEVAVGGTVTIKCQASESISSYLNWYQQKPGQPPKLLIYYESYLASGVPSRFKGSGSGTEYTLTISGVESADAATYYCQQGFSYINVDNTFGGGTEVVVK |
| 1.83 abs. corr. | -0.194 abs. corr. | 416 RFU | 1.31 abs. corr. | P018.S.11.A.E04 (antibody, V domains shown, V regions on human Ig constant parts; also called AB134_35) VH: QSVEESGGRLVTPGTPLTLTCTVSGFSLNDYAMSWVRQAPGKGLEWIGSIYTSGTPYYATWAKGRFTISKTSTTVDLKITSPTTEDTATYFCARQSGIDNYWLFTLWGQGTLVCVSS VL: AYDMTQTPASVEVGVGGTVTIKCQASESIASGLAWYQQKPGQRPKLLIYSASSLASGVSSRFKGSGSGTQFTLTISDLESADAANYYCQQGYTSTNLHNVFGGGTEVVVK |
| 1.86 abs. corr. | 0.139 abs. corr. | 488 RFU | 2.23 abs. corr. | P018.S.12.A.D04 (antibody, V domains shown, V regions on human Ig constant parts; also called AB134_69) VH: QSVEESGGRLVTPGTPLTLTCTVSGIDLSSYAMGWVRQAPGKGLEYIGIISYDGSTYYASWAKGRFTISKTSTTVDLKITSPTTEDTATYFCARVDYGDYNFALWGQGTLVTVSS VL: DVVMTQTPASVSEVVGGTVTIKCQASESISNYLAWYQQKPGQPPKLLIYAASNLASGVPSRFSGSGSGTQFTLTISDLESADAATYYCQCTYYVSSYFAFSGGTEVVVK |
| 1.83 abs. corr. | 0.43 abs. corr. | 523 RFU | 1.89 abs. corr. | P018.S.12.A.H01 (antibody, V domains shown, V regions on human Ig constant parts; also called AB134_88) VH: QSVEESGGRLVTPGTPLTLTCTVSGFSLSSYAMSWVRQAPGKGLEWIGDINSYATTYYASWAKGRFTISKTSTTVDLKLTSPTTEDTATYFCAREAGYADLWGQGTLVTVSS VL: AYDMTQTPASVEVAVGGTVTIKCQASQSISRYLSWYQQEPGQRPKLLIYEASTLASGVSSRFKGSGSGTQFTLTISGVESADAATYYCQQDYDSTDVGNTFGGGTEVVVK |
| 1.83 abs. corr. | 0.215 abs. corr. | 509 RFU | 2.04 abs. corr. | P018.S.12.A.C04 (antibody, V domains shown, V regions on human Ig constant parts; also called AB134_64) VH: QSLEESGGRLVTPGGSLTLTCTVSGIDLSRWTMSWVRQAPGKGLEWIGLIYASDDTVYASWAKGRFTISKTSTTVDLKITSPTTEDTATYFCVRVYGSTSGYYDLWGQGTLVTVSS VL: DVVMTQTPASVSEPVGGTVTIKCQASQSISNWLAWYQQKPGQPPKLLIYYASTLASGVPSRFKGSGSGTQFTLTISDLESADAATYYCQNFGDGNSIGHAFGGGTEVVVK |
| 1.83 abs. corr. | 1.36 abs. corr. | 456 RFU | 1.65 abs. corr. | P018.S.11.A.B05 (antibody, V domains shown, V regions on human Ig constant parts; also called AB134_26) VH: QSVEESGGRLVTPGTPLTLTCTVSGFSLSTYNVAWVRQAPGKGLQYIGIMAFDGNTYYASWATGRFTISRTSTTVNLKITSPTTEDTATYFCCKGDPSSDTGTTLWGQGTLVTVSS VL: AAVLTQTPSSASEPVGGTVTIKCQSSPSVYSNNWLAWFQQKPGQRPKLLIYAAAKLASGVPSRFRGSGSGTQFTLTISDVQSDDAATYYCAGGFNSDSDTTFGGGTEVVVK |
